B2: His-MYB75 (natural protein, Arabidopsis thaliana, UniProt Q9FE25 1-248, looked up)
chain: MEGSSKGLRKGAWTTEEDSLLRQCINKYGEGKWHQVPVRAGLNRCRKSCRLRWLNYLKPSIKRGKLSSDEVDLLLRLHRLLGNRWSLIAGRLPGRTANDVKNYWNTHLSKKHEPCCKIKMKKRDITPIPTTPALKNNVYKPRPRSFTVNNDCNHLNAPPKVDVNPPCLGLNINNVCDNSIIYNKDKKKDQLVNNLIDGDNMWLEKFLEESQEVDILVPEATTTEKGDTLAFDVDQLWSLFDGETVKFD

Holding throughout (test): pull-down
The target in one assay is T1, MBP-MYB75 (Arabidopsis thaliana, UniProt Q9FE25 1-248).
T1 sequence (looked up): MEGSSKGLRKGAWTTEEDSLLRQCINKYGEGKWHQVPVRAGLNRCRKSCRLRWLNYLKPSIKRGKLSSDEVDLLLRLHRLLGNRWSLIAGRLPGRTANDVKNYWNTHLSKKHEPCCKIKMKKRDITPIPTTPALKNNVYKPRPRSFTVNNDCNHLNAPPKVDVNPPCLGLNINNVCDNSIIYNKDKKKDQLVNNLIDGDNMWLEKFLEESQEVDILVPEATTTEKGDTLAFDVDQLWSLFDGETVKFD

For the assay “His-MYB75”, the target named is B2.
The target of another assay is T2, TT8-MBP (Arabidopsis thaliana, UniProt Q9FT81 1-518).
T2 sequence (looked up): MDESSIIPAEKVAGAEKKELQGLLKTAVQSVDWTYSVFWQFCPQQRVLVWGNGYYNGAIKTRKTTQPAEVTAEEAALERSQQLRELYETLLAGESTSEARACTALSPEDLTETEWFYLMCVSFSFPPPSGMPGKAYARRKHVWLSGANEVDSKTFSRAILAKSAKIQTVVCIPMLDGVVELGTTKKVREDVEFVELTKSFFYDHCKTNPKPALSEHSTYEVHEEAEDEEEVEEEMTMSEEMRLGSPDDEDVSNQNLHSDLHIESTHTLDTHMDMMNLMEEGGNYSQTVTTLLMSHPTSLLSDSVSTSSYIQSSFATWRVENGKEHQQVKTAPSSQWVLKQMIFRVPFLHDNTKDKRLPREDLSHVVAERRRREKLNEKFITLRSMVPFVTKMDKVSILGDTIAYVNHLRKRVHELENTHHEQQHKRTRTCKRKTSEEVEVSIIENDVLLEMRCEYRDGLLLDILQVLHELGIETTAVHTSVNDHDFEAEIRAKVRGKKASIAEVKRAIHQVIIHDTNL

Another assay deals with T3, EGL3-MBP (Arabidopsis thaliana, UniProt Q9CAD0 1-596).
T3 sequence (looked up): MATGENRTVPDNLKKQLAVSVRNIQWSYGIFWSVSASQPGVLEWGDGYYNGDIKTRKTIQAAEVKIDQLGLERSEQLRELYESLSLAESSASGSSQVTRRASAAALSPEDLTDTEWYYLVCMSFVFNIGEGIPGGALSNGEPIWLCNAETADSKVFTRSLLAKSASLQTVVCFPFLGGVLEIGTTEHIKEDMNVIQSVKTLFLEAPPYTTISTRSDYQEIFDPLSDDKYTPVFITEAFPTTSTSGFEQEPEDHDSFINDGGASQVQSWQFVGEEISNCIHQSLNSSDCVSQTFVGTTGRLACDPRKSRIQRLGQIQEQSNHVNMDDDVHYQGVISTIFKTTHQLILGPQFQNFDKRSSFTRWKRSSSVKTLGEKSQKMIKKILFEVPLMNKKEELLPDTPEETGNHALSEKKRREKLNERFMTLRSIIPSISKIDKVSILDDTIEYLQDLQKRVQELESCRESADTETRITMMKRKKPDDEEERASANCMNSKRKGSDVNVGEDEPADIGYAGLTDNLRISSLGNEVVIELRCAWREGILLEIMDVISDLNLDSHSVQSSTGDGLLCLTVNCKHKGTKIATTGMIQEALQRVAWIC

The record followed here is PMC10943538 (Plant Communications, 2023).

B1: GST-MYB30^N (domain or fragment)
chain: not shown
Regarding B1, the binding result with MBP-MYB75 and with His-MYB75 was “binds” each time.

Regarding B2, the binding result in the assay with TT8-MBP and with EGL3-MBP was “binds” each time.
